The record followed here is US7442375B2, “Compositions of beta-defensin inducing agents” (Case Western Reserve University, priority 2002, dated 2008).

The test system of experiment [1] is HIV-1 R5-C-97ZA003. In words: hBD-virion interaction: virions incubated with hBD, pelleted, washed, used to infect GHOST X4/R5 cells. The class given is cell-based. The conditions noted are these: 20 μg/ml in 10 mM PB 1 h; RT activity 48 h post-infection. The protocol:
(§1) (a) CXCR4 tropic HXB2 and CCR5 tropic 97ZA003 HIV-1 strains were incubated with 20 μg/ml hBD-1, -2, or -3 in 10 mM PB for 1 h. Virions were pelleted, washed extensively with PBS and used to infect GHOST X4/R5 cells. RT activity was measured 48 h post-infection. The final two columns represent an additional 20 μg/ml of hBD-2 or -3 during infection. (b) Immunoelectron microscopy analysis showing the interaction of hBD-2 and -3 with HIV-1 and with MT4 cell membrane. X4 HIV-1 HXB2 strain and MT4 cells were incubated with hBD-2 or -3 (20 μg/ml), 37° C., 1 h. Polyclonal anti-hBD-2 or -3 antibodies were added, followed by addition of secondary IgG conjugated with 10-nm gold particles. Arrows indicate hBD-2 and -3 localization to virions and cell membrane.
(§2) In order to verify a direct hBD-virion interaction, the X4 B-HXB2 and R5-C-97ZA003 HIV-1 strains was incubated with 20 μg/ml of each hBD in 10 mM PB for 1 h, followed by pelleting and extensive washing. Virions were then used to infect GHOST X4/R5 cells. […] To further define these interactions, MT4 cells, infected with the CXCR4 tropic B-HXB2, were incubated with hBD-2 or -3 in RPMI, followed by the addition of anti-hBD-2 or -3 antibodies and goat anti-rabbit IgG conjugated with 10-nm gold particles.

The test system of experiment [2] is HIV-1 X4 B-HXB2. The description is as above. The format is cell-based. On the procedure: as §1, §2
In experiment [3] the test system is HIV-1 B-HXB2 virions. In words: Immunogold transmission electron microscopy. The format is binding. The conditions noted are these: 20 μg/ml, 37° C., 1 h; anti-hBD antibody and 10-nm gold IgG. On the procedure: as §1
MT4 cells in RPMI, or X4 strain B-HXB2 viral particles in 10 mM phosphate buffer (PB), were incubated with 20 μg/ml hBD-2 and -3 at 37° C. for 1 h. Cells and virions were centrifuged (15 min, 1200 rpm for cells; 30 min, 35 000 3 g for virus) and washed twice with PBS to remove unbound hBD. Cells and virions were mixed and fixed with 4% paraformaldehyde/0.5% glutaraldehyde, dehydrated, embedded in LR WHITE resin (London Resin Company Ltd, Berkshire, UK), and labeled after embedding as described [Briquet et al.]. […]

Experiment [4] has as its target CCR5 (Homo sapiens, UniProt P51681). In words: Confocal microscopy of co-receptor surface expression on CEM X4/R5 cells. The class given is cell-based. Details: endogenous in cells. The conditions noted are these: 20 μg/ml, 3 h. The protocol: (§3) CEM X4/R5 cells were grown in RPMI-1640 medium containing 5% FBS and 400 μg/ml G418. Cells were collected, washed twice with PBS, resuspended in RPMI with 0.5% FBS or supplemented with 20 μg/ml recombinant hBD-2 or -3, and incubated at 37° C., 5% CO2 for 3 h. A second aliquot of cells, after incubation with hBD, was treated with FACS/Perm (PharMingen) at room temperature for 10 min and then washed three times with PBS. A third aliquot of cells was fixed in 1% paraformaldehyde on ice for 30 min, washed three times with PBS, and then incubated with 20 μg/ml hBD-2 or -3. Cells were stained with PE-labeled CXCR4 or CCR5 (PharMingen), or with primary goat anti-hBD-2 antibodies (Cell Sciences, Norwood, Mass., USA), or with rabbit anti-hBD-3 antibodies (Orbingen, San Diego, Calif., USA) at room temperature for 90 min, followed by washing three times with PBS. Fluorescein isothiocyanate-labeled rabbit anti-goat IgG (Jackson ImmunoResearch, West Grove, Pa., USA) for detection of hBD-2, or goat anti-rabbit IgG (Sigma) for detection of hBD-3, were added, respectively, at room temperature and incubated for 90 min. […] All samples were observed using a dual scanning confocal microscope system (Zeiss LSM 510, Oberkochem, Germany) and analyzed with the Zeiss LSM 5 Image Browser. […]

For experiment [5], the target named is CXCR4 (Homo sapiens, UniProt P61073). Described as above. The conditions noted are these: 20 μg/ml, 3 h. The class given is cell-based. Set-up: endogenous in cells. On the procedure: as §3
Chain of CXCR4 (P61073 whole entry): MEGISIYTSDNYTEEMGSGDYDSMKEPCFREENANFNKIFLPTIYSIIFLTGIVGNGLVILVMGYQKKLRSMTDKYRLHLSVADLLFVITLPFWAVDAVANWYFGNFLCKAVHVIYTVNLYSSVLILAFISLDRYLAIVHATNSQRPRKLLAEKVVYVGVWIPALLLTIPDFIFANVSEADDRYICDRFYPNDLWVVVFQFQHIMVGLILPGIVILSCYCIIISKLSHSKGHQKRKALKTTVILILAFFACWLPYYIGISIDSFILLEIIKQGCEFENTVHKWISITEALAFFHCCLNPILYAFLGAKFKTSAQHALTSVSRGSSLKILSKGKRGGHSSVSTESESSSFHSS

Chain of CCR5 (P51681 whole entry): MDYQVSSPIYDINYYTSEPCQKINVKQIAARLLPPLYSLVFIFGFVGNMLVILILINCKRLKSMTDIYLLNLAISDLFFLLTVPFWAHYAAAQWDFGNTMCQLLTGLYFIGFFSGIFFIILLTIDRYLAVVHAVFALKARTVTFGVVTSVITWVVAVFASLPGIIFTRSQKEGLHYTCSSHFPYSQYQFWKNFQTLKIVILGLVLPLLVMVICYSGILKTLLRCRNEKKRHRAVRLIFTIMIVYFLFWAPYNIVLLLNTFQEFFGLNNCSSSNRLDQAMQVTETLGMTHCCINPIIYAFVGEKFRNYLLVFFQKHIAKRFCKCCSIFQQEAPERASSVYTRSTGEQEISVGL

B1: hBD-3: Recombinant human β-defensin 3 produced using an hBD-3-His tag fusion construct cloned into pET-30c; exemplary sequence SEQ ID NO:15 (protein, listed as Homo sapiens)
chain: MRIHYLLFALLFLFLVPVPGHGGIINTLQKYYCRVRGGRCAVLSCLPKEEQIGKCSTRGRKCCRRKK
modifications: not fully specified (C-terminus); ends and bridges not checked
As to B1, the “anti-HIV-1 effect after pelleting and extensive washing of virions” value in experiment [1] is “maintained after washing”; in experiment [2] (20 μg/ml in 10 mM PB 1 h, RT activity 48 h post-infection) it was “maintained after washing”. Also, the “effect of subsequent addition of hBD to the cell-virus mixture” value in experiment [2] (additional 20 μg/ml during infection, enhancement only against the CXCR4-tropic strain) is recorded as “enhanced anti-HIV-1 activity”. Also, the “gold particles bound to virions” value in experiment [3] is “bound both to virions and to the MT4 cellular membrane”. Also, the “surface expression of CCR5” value in experiment [4] is listed as “not”. The “surface expression of CXCR4” value in experiment [5] was “dramatically decreased”.
